Data reported in patent US20210063414A1, “METHODS FOR PREVENTING AND/OR TREATING BONE LOSS CONDITIONS BY MODULATING IRISIN” (Dana-Farber Cancer Institute, Inc., priority 2018, published 2021).

Molecular target: integrin αV/β5 (Homo sapiens, UniProt P06756+P18084)
Assay: Differential HDX/MS of irisin and integrin αV/β5
Format: binding
Details: 10 μM irisin, 30 μM integrin αV/β5
Protocol: Differential HDX-MS experiments were conducted as previously described with a few modifications (Chalmers et al. (2006) Anal. Chen. 78:1005-1014).
Protein samples were injected for inline pepsin digestion and the resulting peptides were identified using tandem MS (MS/MS) with an Orbitrap™ mass spectrometer (Fusion Lumos, ThermoFisher). Following digestion, peptides were desalted on a C8 trap column and separated on a 1 hour linear gradient of 5-40% B (A is 0.3% formic acid and B is 0.3% formic acid 95% CH3CN). Product ion spectra were acquired in data-dependent mode with a one second duty cycle such that the most abundant ions selected for the product ion analysis by higher-energy collisional dissociation between survey scan events occurring once per second. Following MS2 acquisition, the precursor ion was excluded for 16 seconds. […]
HDX-MS analysis: Apo proteins (irisin and integrin αV/β5) were analyzed at 10 μM each. […] The intensity weighted mean m/z centroid value of each peptide envelope was calculated and subsequently converted into a percentage of deuterium incorporation. […] Statistical significance for the differential HDX data was determined by an unpaired t-test for each time point, a procedure that was integrated into the HDX Workbench software (Pascal et al. (2012) J Am. Soc. Mass Spectrom. 23:1512-1521). […]

integrin αV/β5, sequence (P18084 24-719 limits assumed): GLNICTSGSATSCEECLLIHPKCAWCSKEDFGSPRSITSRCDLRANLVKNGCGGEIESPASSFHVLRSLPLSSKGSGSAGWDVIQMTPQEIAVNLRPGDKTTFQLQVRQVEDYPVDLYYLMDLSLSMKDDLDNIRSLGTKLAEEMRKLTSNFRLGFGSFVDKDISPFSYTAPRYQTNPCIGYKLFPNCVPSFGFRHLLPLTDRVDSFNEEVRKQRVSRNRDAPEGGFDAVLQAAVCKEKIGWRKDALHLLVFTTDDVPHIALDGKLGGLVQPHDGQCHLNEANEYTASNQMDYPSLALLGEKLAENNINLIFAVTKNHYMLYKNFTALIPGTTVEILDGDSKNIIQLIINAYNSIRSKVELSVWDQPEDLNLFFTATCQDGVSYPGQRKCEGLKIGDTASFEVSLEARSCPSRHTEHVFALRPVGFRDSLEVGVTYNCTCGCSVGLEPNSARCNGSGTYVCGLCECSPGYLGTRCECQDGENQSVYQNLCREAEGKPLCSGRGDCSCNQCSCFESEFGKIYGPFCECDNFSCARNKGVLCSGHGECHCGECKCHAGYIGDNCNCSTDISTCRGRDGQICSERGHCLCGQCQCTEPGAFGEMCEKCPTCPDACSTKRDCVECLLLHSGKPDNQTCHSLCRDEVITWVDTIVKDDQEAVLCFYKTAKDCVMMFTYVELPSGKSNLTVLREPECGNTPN
integrin αV/β5, sequence (P06756 31-889 limits assumed): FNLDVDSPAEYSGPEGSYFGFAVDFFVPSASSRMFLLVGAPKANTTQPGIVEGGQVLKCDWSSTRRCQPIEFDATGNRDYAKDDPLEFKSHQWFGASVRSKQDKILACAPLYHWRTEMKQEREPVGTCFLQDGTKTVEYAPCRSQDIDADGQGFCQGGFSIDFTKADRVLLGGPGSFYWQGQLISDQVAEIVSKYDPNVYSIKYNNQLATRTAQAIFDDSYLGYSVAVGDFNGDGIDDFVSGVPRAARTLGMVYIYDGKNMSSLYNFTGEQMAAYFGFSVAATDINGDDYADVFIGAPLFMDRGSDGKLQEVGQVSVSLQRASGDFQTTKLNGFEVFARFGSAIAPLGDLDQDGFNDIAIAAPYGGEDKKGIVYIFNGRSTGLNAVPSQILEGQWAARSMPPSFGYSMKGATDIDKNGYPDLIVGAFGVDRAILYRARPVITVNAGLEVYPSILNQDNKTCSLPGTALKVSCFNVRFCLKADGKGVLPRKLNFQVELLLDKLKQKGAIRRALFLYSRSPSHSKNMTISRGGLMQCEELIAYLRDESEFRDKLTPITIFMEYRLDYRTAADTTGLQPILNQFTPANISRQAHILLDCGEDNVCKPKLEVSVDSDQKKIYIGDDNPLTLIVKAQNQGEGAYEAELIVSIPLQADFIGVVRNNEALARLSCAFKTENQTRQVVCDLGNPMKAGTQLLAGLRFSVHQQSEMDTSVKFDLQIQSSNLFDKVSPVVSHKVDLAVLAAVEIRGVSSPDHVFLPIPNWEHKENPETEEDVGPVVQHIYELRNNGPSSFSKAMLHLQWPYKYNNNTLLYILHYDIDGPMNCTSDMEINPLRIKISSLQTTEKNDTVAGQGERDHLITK
integrin αV/β5, sequence (P06756 891-992 partner limits assumed): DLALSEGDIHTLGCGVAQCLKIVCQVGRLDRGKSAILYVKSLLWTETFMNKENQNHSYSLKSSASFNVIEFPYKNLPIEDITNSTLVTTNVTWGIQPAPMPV

B1: irisin: secreted cleaved form of FNDC5; recombinant human/mouse irisin with C-terminal his tag produced in HEK293 cells (protein)
chain: DSPSAPVNVTVRHLKANSAVVSWDVLEDEVVIGFAISQQKKDVRMLRFIQEVNTTTRSCALWDLEEDTEYIVHVQAISIQGQSPASEPVLFKTPREAEKMASKNKDEVTMKE
modifications: left off: small tags and cut ends
notes: secreted cleaved form of FNDC5; recombinant human/mouse irisin with C-terminal his tag produced in HEK293 cells
  direct interaction with integrin αV/β5 (HDX/MS): directly binds integrin αV/β5
